The values below come from publication PMC5339767, “A Novel Kleefstra Syndrome-associated Variant That Affects the Conserved TPLX Motif within the Ankyrin Repeat of EHMT1 Leads to Abnormal Protein Folding” (The Journal of Biological Chemistry, 2017).

“Also recorded” adds a separate entry of the source.

One series concerns the target T1, EHMT1 WT (Homo sapiens, UniProt Q9H9B1).
T1 construct: WT and p.P809L EHMT1 variant ankyrin domains expressed from Escherichia coli; His6 (N); made in house; host or cells: E. coli BL21 (DE3), pET vector
T1 sequence (Q9H9B1 765-1001 limits assumed): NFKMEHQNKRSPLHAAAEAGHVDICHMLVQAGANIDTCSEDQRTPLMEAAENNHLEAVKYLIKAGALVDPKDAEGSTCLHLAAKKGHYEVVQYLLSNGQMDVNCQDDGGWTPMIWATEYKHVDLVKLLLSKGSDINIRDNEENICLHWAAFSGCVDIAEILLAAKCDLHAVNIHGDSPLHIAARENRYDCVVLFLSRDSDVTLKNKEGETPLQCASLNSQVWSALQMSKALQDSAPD
The series is described as follows: Trp fluorescence quenching titration of dimethylated histone H3 Lys9 peptide, WT EHMT1. It counts as binding. The settings on record: WT EHMT1 1 μM; stepwise addition of peptide (36.3 μM); 2 min equilibration; 20 °C; λEx 295 nm, λEm 350 nm; midpoint of logistic function with Hill slope; read-out: apparent affinity. As for the experimental part: (§1) Circular dichroism spectra (Fig. 7, left panel) were recorded to study the effect of the p.P809L mutation on the secondary structure of EHMT1 and confirm the in silico predictions that the p.P809L variant causes abnormal protein folding. The far UV CD spectrum of EHMT1 is dominated by the α-helical content of the protein showing two characteristic minima at 222 and 208 nm. […] Lastly, because the ankyrin repeat domain of the EHMT1 is critical for binding to methylated histones to regulate gene expression, we also studied the interaction of EHMT1 and the p.P809L mutation with its dimethylated target, the histone H3K9 peptide, by monitoring the Trp fluorescence emission at 350 nm after excitation at 295 nm (Fig. 9, left panel).
FIGURE 9. Interaction of EHMT1 with the dimethylated histone H3 Lys^9 peptide. […] The change in fluorescence intensity was followed at λEm = 350 nm after excitation at λEx = 295 nm. […]
For experimental purposes, we produced and purified an N-terminal His6-tagged recombinant form of WT and the p.P809L EHMT1 proteins using the pET vector system (Novagen). […] Spectra in the far UV range (200–260 nm) for WT and p.P809L EHMT1 were recorded on an Aviv Biomedical Model 420SF circular dichroism spectrometer. […] Fluorescence measurements were performed at 20 °C on a Horiba Jobin-Yvon Fluorolog 3 spectrofluorometer equipped with a Wavelength Electronics LF1-3751 temperature controller. […]

Series [1] is described as follows: intrinsic protein fluorescence emission spectra. It counts as physicochemical. The settings on record: protein 1 μM, 20 °C; for λmax of fluorescence emission: excitation 280 and 295 nm, emission 310-440 nm. As for the experimental part:
as §1
FIGURE 8. Fluorescence emission spectra of WT EHMT1 and of p.P809L. Fluorescence emission spectra of WT EHMT1 (solid symbols and bars) and of p.P809L (open symbols and bars) were obtained. Spectra were recorded at 20 °C using a protein concentration of 1 μM. The excitation wavelengths (λEx) were 280 nm (circles; excitation of Trp and Tyr residues) and 295 nm (squares; selective excitation of Trp residues). […]
For experimental purposes, we produced and purified an N-terminal His6-tagged recombinant form of WT and the p.P809L EHMT1 proteins using the pET vector system (Novagen). […] Spectra in the far UV range (200–260 nm) for WT and p.P809L EHMT1 were recorded on an Aviv Biomedical Model 420SF circular dichroism spectrometer. […] Fluorescence measurements were performed at 20 °C on a Horiba Jobin-Yvon Fluorolog 3 spectrofluorometer equipped with a Wavelength Electronics LF1-3751 temperature controller. Fluorescence emission spectra of both proteins were recorded between 310 and 440 nm after excitation at 280 or 295 nm using a protein concentration of 1 μM in a 1-cm quartz cell. […] After equilibration for 2 min, the fluorescence signal was recorded and averaged for 20 s using an excitation wavelength of 295 nm for the selective excitation of Trp residues and an emission wavelength of 350 nm. […]

Series [2] is described as follows: far UV circular dichroism spectroscopy. The settings on record: far UV CD 200–260 nm, 20 °C; Bestsel deconvolution; compared with WT. It counts as physicochemical. On the procedure: as §1
FIGURE 7. Impact of the p. P809L mutation on secondary structure. Left panel, far UV CD spectra of WT EHMT1 (●) and of p.P809L (○) were recorded at 20 °C, corrected by the signal of the buffer, and converted to mean ellipticity per amino acid residue (ϴ^MRW). […]
For experimental purposes, we produced and purified an N-terminal His6-tagged recombinant form of WT and the p.P809L EHMT1 proteins using the pET vector system (Novagen). […] Spectra in the far UV range (200–260 nm) for WT and p.P809L EHMT1 were recorded on an Aviv Biomedical Model 420SF circular dichroism spectrometer. […]
On the technique in general: CD spectra are sensitive to the conformation of chiral molecules.

For series [3] the following is noted: p.P81L mutation in TPLX motif of p16; cited from earlier work. The source says:
(§2) Nevertheless, our study is the first to describe how mutations in any of the TPLX motifs of the EHMT1 ankyrin domain affect protein folding to induce a moderate change in its affinity for the H3K9me2 peptide. Thus, it becomes important to compare this information to other, better characterized mutations in ankyrin repeats that are known to be pathogenic in humans. […] Thus, this type of mutation ( ...

For another series, the system named is CDK4. The settings on record: non-quantitative two-hybrid GAL4-based reporter assay; cited from earlier work.
From the text: as §2
On the technique in general: In a reporter assay the amount or activity of a reporter protein is the signal.

As for “H3K9me2 peptide: dimethylated histone H3 Lys^9 peptide”, the Kd with EHMT1 WT amounted to 760 nM.

B1: WT EHMT1: N-terminal His6-tagged recombinant form of WT EHMT1 (protein, UniProt Q9H9B1 2-1298, looked up)
Histone-lysine …: AAADAEAVPARGEPQQDCCVKTELLGEETPMAADEGSAEKQAGEAHMAADGETNGSCENSDASSHANAAKHTQDSARVNPQDGTNTLTRIAENGVSERDSEAAKQNHVTADDFVQTSVIGSNGYILNKPALQAQPLRTTSTLASSLPGHAAKTLPGGAGKGRTPSAFPQTPAAPPATLGEGSADTEDRKLPAPGADVKVHRARKTMPKSVVGLHAASKDPREVREARDHKEPKEEINKNISDFGRQQLLPPFPSLHQSLPQNQCYMATTKSQTACLPFVLAAAVSRKKKRRMGTYSLVPKKKTKVLKQRTVIEMFKSITHSTVGSKGEKDLGASSLHVNGESLEMDSDEDDSEELEEDDGHGAEQAAAFPTEDSRTSKESMSEADRAQKMDGESEEEQESVDTGEEEEGGDESDLSSESSIKKKFLKRKGKTDSPWIKPARKRRRRSRKKPSGALGSESYKSSAGSAEQTAPGDSTGYMEVSLDSLDLRVKGILSSQAEGLANGPDVLETDGLQEVPLCSCRMETPKSREITTLANNQCMATESVDHELGRCTNSVVKYELMRPSNKAPLLVLCEDHRGRMVKHQCCPGCGYFCTAGNFMECQPESSISHRFHKDCASRVNNASYCPHCGEESSKAKEVTIAKADTTSTVTPVPGQEKGSALEGRADTTTGSAAGPPLSEDDKLQGAASHVPEGFDPTGPAGLGRPTPGLSQGPGKETLESALIALDSEKPKKLRFHPKQLYFSARQGELQKVLLMLVDGIDPNFKMEHQNKRSPLHAAAEAGHVDICHMLVQAGANIDTCSEDQRTPLMEAAENNHLEAVKYLIKAGALVDPKDAEGSTCLHLAAKKGHYEVVQYLLSNGQMDVNCQDDGGWTPMIWATEYKHVDLVKLLLSKGSDINIRDNEENICLHWAAFSGCVDIAEILLAAKCDLHAVNIHGDSPLHIAARENRYDCVVLFLSRDSDVTLKNKEGETPLQCASLNSQVWSALQMSKALQDSAPDRPSPVERIVSRDIARGYERIPIPCVNAVDSEPCPSNYKYVSQNCVTSPMNIDRNITHLQYCVCIDDCSSSNCMCGQLSMRCWYDKDGRLLPEFNMAEPPLIFECNHACSCWRNCRNRVVQNGLRARLQLYRTRDMGWGVRSLQDIPPGTFVCEYVGELISDSEADVREEDSYLFDLDNKDGEVYCIDARFYGNVSRFINHHCEPNLVPVRVFMAHQDLRFPRIAFFSTRLIEAGEQLGFDYGERFWDIKGKLFSCRCGSPKCRHSSAALAQRQASAAQEAQEDGLPDTSSAAAADPL
modifications: N-terminal His6 tag
On to B1, for which the “λmax of fluorescence emission” value in series [1] is reported as ~350 nm.

B2: p.P809L: N-terminal His6-tagged recombinant p.P809L EHMT1 variant (c.2426C>T) (protein, UniProt Q9H9B1 2-1298, looked up, variant P809L)
Histone-lysine …: AAADAEAVPARGEPQQDCCVKTELLGEETPMAADEGSAEKQAGEAHMAADGETNGSCENSDASSHANAAKHTQDSARVNPQDGTNTLTRIAENGVSERDSEAAKQNHVTADDFVQTSVIGSNGYILNKPALQAQPLRTTSTLASSLPGHAAKTLPGGAGKGRTPSAFPQTPAAPPATLGEGSADTEDRKLPAPGADVKVHRARKTMPKSVVGLHAASKDPREVREARDHKEPKEEINKNISDFGRQQLLPPFPSLHQSLPQNQCYMATTKSQTACLPFVLAAAVSRKKKRRMGTYSLVPKKKTKVLKQRTVIEMFKSITHSTVGSKGEKDLGASSLHVNGESLEMDSDEDDSEELEEDDGHGAEQAAAFPTEDSRTSKESMSEADRAQKMDGESEEEQESVDTGEEEEGGDESDLSSESSIKKKFLKRKGKTDSPWIKPARKRRRRSRKKPSGALGSESYKSSAGSAEQTAPGDSTGYMEVSLDSLDLRVKGILSSQAEGLANGPDVLETDGLQEVPLCSCRMETPKSREITTLANNQCMATESVDHELGRCTNSVVKYELMRPSNKAPLLVLCEDHRGRMVKHQCCPGCGYFCTAGNFMECQPESSISHRFHKDCASRVNNASYCPHCGEESSKAKEVTIAKADTTSTVTPVPGQEKGSALEGRADTTTGSAAGPPLSEDDKLQGAASHVPEGFDPTGPAGLGRPTPGLSQGPGKETLESALIALDSEKPKKLRFHPKQLYFSARQGELQKVLLMLVDGIDPNFKMEHQNKRSPLHAAAEAGHVDICHMLVQAGANIDTCSEDQRTLLMEAAENNHLEAVKYLIKAGALVDPKDAEGSTCLHLAAKKGHYEVVQYLLSNGQMDVNCQDDGGWTPMIWATEYKHVDLVKLLLSKGSDINIRDNEENICLHWAAFSGCVDIAEILLAAKCDLHAVNIHGDSPLHIAARENRYDCVVLFLSRDSDVTLKNKEGETPLQCASLNSQVWSALQMSKALQDSAPDRPSPVERIVSRDIARGYERIPIPCVNAVDSEPCPSNYKYVSQNCVTSPMNIDRNITHLQYCVCIDDCSSSNCMCGQLSMRCWYDKDGRLLPEFNMAEPPLIFECNHACSCWRNCRNRVVQNGLRARLQLYRTRDMGWGVRSLQDIPPGTFVCEYVGELISDSEADVREEDSYLFDLDNKDGEVYCIDARFYGNVSRFINHHCEPNLVPVRVFMAHQDLRFPRIAFFSTRLIEAGEQLGFDYGERFWDIKGKLFSCRCGSPKCRHSSAALAQRQASAAQEAQEDGLPDTSSAAAADPL
modifications: N-terminal His6 tag
Turning to B2, the α-helical content entry in series [2] is “reduced α-helical content; also recorded: decrease in the α-helical content”. The “fluorescence emission (intensity)” value in series [1] (compared with wild type protein) is recorded as “decrease of the fluorescence emission”. The “λmax of fluorescence emission” value in series [1] is 347 nm.

B3: p.P81L p16: p.P81L mutation in the TPLX motif within the ankyrin repeat of the tumor suppressor p16 (protein, UniProt P42771 1-156, looked up, variant P81L)
Cyclin-dependent kinase …: MEPAAGSSMEPSADWLATAAARGRVEEVRALLEAGALPNAPNSYGRRPIQVMMMGSARVAELLLLHGAEPNCADPATLTRLVHDAAREGFLDTLVVLHRAGARLDVRDAWGRLPVDLAEELGHRDVARYLRAAAGGTRGSNHARIDAAEGPSDIPD
On to B3, for which the secondary structure entry in series [3] was “secondary structure alterations”. Further, the “interaction with CDK4” value in the series on CDK4 is “impaired interaction with CDK4”.
